± gives the standard deviation of the averaged measurements.
Key:
MCF7 = assay: percentage of EdU-negative (G0-arrested) nuclei per well, 72 h; higher = more G0 arrest; conditions: reference: sequence is the full UniProt precursor, the tested protein was the secreted form or ectodomain
hTERT-HMEC = assay: as above; conditions: reference: sequence is the full UniProt precursor, the tested protein was the secreted form or ectodomain
[1] = protein concentration 0.0225 µM
[2] = protein concentration 0.03125 µM
[3] = protein concentration 0.3125 µM
[4] = protein concentration 0.01925 µM
[5] = protein concentration 0.1925 µM
[6] = protein concentration 0.01125 µM
[7] = protein concentration 0.1125 µM
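Also: secreted proteins added to cultured cells, EdU pulse at the end, nuclei found by Hoechst imaging, EdU status from nuclear versus surrounding ring intensity ratio, PBS as neutral control.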

Sequence: MRLAVLFSGALLGLLAAQGTGNDCPHKKSATLLPSFTVTPTVTESTGTTSHRTTKSHKTTTHRTTTTGTTSHGPTTATHNPTTTSHGNVTVHPTSNSTATSQGPSTATHSPATTSHGNATVHPTSNSTATSPGFTSSAHPEPPPPSPSPSPTSKETIGDYTWTNGSQPCVHLQAQIQIRVMYTTQGGGEAWGISVLNPNKTKVQGSCEGAHPHLLLSFPYGHLSFGFMQDLQQKVVYLSYMAVEYNVSFPHAAQWTFSAQNASLRDLQAPLGQSFSCSNSSIILSPAVHLDLLSLRLQAAQLPHTGVFGQSFSCPSDRSILLPLIIGLILLGLLALVLIAFCIIRRRPSAYQAL
- percentage of EdU-negative (MCF7; [1]): 25.5 ± 1.1%
- percentage of EdU-negative (MCF7; protein concentration 0.225 µM): 26.5 ± 0.42%
- percentage of EdU-negative (hTERT-HMEC; [1]): 4.81 ± 0.13%
- percentage of EdU-negative (hTERT-HMEC; protein concentration 0.225 µM): 7.36 ± 0.68%

Sequence: MAARALCMLGLVLALLSSSSAEEYVGLSANQCAVPAKDRVDCGYPHVTPKECNNRGCCFDSRIPGVPWCFKPLQEAECTF
- percentage of EdU-negative (MCF7; [1]): 26.62 ± 0.26%
- percentage of EdU-negative (MCF7; protein concentration 0.225 µM): 24 ± 0.99%
- percentage of EdU-negative (hTERT-HMEC; [1]): 4.3 ± 0.16%
- percentage of EdU-negative (hTERT-HMEC; protein concentration 0.225 µM): 4.29 ± 0.22%

Sequence: MRALVLLLSLFLLGGQAQHVSDWTYSEGALDEAHWPQHYPACGGQRQSPINLQRTKVRYNPSLKGLNMTGYETQAGEFPMVNNGHTVQISLPSTMRMTVADGTVYIAQQMHFHWGGASSEISGSEHTVDGIRHVIEIHIVHYNSKYKSYDIAQDAPDGLAVLAAFVEVKNYPENTYYSNFISHLANIKYPGQRTTLTGLDVQDMLPRNLQHYYTYHGSLTTPPCTENVHWFVLADFVKLSRTQVWKLENSLLDHRNKTIHNDYRRTQPLNHRVVESNFPNQEYTLGSEFQFYLHKIEEILDYLRRALN
- percentage of EdU-negative (MCF7; [2]): 24.6 ± 1.3%
- percentage of EdU-negative (MCF7; [3]): 23.7 ± 0.28%
- percentage of EdU-negative (hTERT-HMEC; [2]): 5.04 ± 0.54%
- percentage of EdU-negative (hTERT-HMEC; [3]): 4.6 ± 0.89%

Sequence: MARFGLPALLCTLAVLSAALLAAELKSKSCSEVRRLYVSKGFNKNDAPLHEINGDHLKICPQGSTCCSQEMEEKYSLQSKDDFKSVVSEQCNHLQAVFASRYKKFDEFFKELLENAEKSLNDMFVKTYGHLYMQNSELFKDLFVELKRYYVVGNVNLEEMLNDFWARLLERMFRLVNSQYHFTDEYLECVSKYTEQLKPFGDVPRKLKLQVTRAFVAARTFAQGLAVAGDVVSKVSVVNPTAQCTHALLKMIYCSHCRGLVTVKPCYNYCSNIMRGCLANQGDLDFEWNNFIDAMLMVAERLEGPFNIESVMDPIDVKISDAIMNMQDNSVQVSQKVFQGCGPPKPLPAGRISRSISESAFSARFRPHHPEERPTTAAGTSLDRLVTDVKEKLKQAKKFWSSLPSNVCNDERMAAGNGNEDDCWNGKGKSRYLFAVTGNGLANQGNNPEVQVDTSKPDILILRQIMALRVMTSKMKNAYNGNDVDFFDISDESSGEGSGSGCEYQQCPSEFDYNATDHAGKSANEKADSAGVRPGAQAYLLTVFCILFLVMQREWR
- percentage of EdU-negative (MCF7; [4]): 26.5 ± 0.51%
- percentage of EdU-negative (MCF7; [5]): 29.9 ± 0.64%
- percentage of EdU-negative (hTERT-HMEC; [4]): 4.9 ± 0.24%
- percentage of EdU-negative (hTERT-HMEC; [5]): 4.77 ± 0.82%

Sequence: MAFLPSWVCVLVGSFSASLAGTSNLSETEPPLWKESPGQLSDYRVENSMYIINPWVYLERMGMYKIILNQTARYFAKFAPDNEQNILWGLPLQYGWQYRTGRLADPTRRTNCGYESGDHMCISVDSWWADLNYFLSSLPFLAAVDSGVMGISSDQVRLLPPPKNERKFCYDVSSCRSSFPETMNKWNTFYQYLQSPFSKFDDLLKYLWAAHTSTLADNIKSFEDRYDYYSKAEAHFERSWVLAVDHLAAVLFPTTLIRSYKFQKGMPPRILLNTDVAPFISDFTAFQNVVLVLLNMLDNVDKSIGYLCTEKSNVYRDHSESSSRSYGNNS [Q6P5S2]
- percentage of EdU-negative (MCF7; [1]): 25.7 ± 0.86%
- percentage of EdU-negative (MCF7; protein concentration 0.225 µM): 26.6 ± 0.54%
- percentage of EdU-negative (hTERT-HMEC; [1]): 4.92 ± 0.16%
- percentage of EdU-negative (hTERT-HMEC; protein concentration 0.225 µM): 5.82 ± 0.65%

Sequence: MGSPRSALSCLLLHLLVLCLQAQEGPGRGPALGRELASLFRAGREPQGVSQQHVREQSLVTDQLSRRLIRTYQLYSRTSGKHVQVLANKRINAMAEDGDPFAKLIVETDTFGSRVRVRGAETGLYICMNKKGKLIAKSNGKGKDCVFTEIVLENNYTALQNAKYEGWYMAFTRKGRPRKGSKTRQHQREVHFMKRLPRGHHTTEQSLRFEFLNYPPFTRSLRGSQRTWAPEPR
- percentage of EdU-negative (MCF7; [6]): 25.1 ± 1.4%
- percentage of EdU-negative (MCF7; [7]): 25.58 ± 0.037%
- percentage of EdU-negative (hTERT-HMEC; [6]): 5.64 ± 0.65%
- percentage of EdU-negative (hTERT-HMEC; [7]): 11 ± 1.7%
